US20260191907A1 (INSTITUT CURIE, published 2026)

T1: Recombinant FGFR1 (G&P Biosciences) (UniProt P11362 22-376, limits assumed)
T1 construct: Immobilised on the SPR chip
T1 sequence (looked up): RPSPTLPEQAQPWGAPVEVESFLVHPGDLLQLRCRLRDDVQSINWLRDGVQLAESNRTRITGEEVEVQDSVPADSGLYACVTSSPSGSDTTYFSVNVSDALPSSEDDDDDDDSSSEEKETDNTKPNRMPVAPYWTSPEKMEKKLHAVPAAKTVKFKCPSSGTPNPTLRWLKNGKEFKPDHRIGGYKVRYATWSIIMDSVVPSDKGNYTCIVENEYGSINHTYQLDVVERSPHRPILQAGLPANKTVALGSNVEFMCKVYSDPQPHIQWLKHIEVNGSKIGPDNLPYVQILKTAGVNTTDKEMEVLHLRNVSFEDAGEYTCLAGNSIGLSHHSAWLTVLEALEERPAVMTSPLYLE

T2: Recombinant FGFR4 (G&P Biosciences) (human, UniProt P22455 22-369)
T2 construct: Bought protein; the SPR method says only 'Recombinant; also called rFGFR4; extracellular FGFR4
T2 sequence: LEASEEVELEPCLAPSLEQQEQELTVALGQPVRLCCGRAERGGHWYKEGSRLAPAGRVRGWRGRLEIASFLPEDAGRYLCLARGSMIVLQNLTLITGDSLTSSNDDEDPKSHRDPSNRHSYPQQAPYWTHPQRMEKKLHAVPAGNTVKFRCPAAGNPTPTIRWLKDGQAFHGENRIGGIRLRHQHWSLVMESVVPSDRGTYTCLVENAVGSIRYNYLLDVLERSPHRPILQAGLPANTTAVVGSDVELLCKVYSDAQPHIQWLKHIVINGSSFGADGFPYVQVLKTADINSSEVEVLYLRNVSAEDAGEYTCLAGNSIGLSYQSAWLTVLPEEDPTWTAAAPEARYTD

B1: B5 nanobody (anti-FGFR4 sdAb, NaLi-H1 library) (VHH)
VHH: EVQLQASGGGFVQPGGSLRLSCAASGRTSWLTTMGWFRQAPGKEREFVSAISSFSSKQGYYADSVKGRFTISRDNSKNTVYLQMNSLRAEDTATYYCAYASYPRHQGNGRWKDFVEYWGQGTQVTVSS
notes: Recombinant nanobody of about 17 kDa; also called B5 sdAb; not shown: C-terminal Myc/6xHis-tag and an additional cysteine
B2: A8 nanobody (anti-FGFR4 sdAb, NaLi-H1 library) (VHH)
VHH: EVQLQASGGGFVQPGGSLRLSCAASGRTYSRDTMGWFRQAPGKEREFVSAISSRHSHTTYYADSVKGRFTISRDNSKNTVYLQMNSLRAEDTATYYCAEWDVFDMHYALPPMWYWGQGTQVTVSS
notes: also called A8 sdAb; not shown: C-terminal Myc/6xHis-tag and an additional cysteine
B3: B1 nanobody (anti-FGFR4 sdAb, NaLi-H1 library) (VHH)
VHH: EVQLQASGGGFVQPGGSLRLSCAASGYTSRSSAMGWFRQAPGKEREFVSAISDLTGYPYYYADSVKGRFTISRDNSKNTVYLQMNSLRAEDTATYYCAAYQDDKWTYGSQHGKYWGQGTQVTVSS
notes: also called B1 sdAb; not shown: C-terminal Myc/6xHis-tag and an additional cysteine
B4: F8 nanobody (anti-FGFR4 sdAb, Gimli library) (VHH)
VHH: EVQLVESGGGLVQPGGSLRLSCAASGTGYALDDMGWVRQAPGKGLEWVSAISDDESMADYYADSVKGRFTISRDNSKNTVYLQMNSLRAEDTAVYYCASYKEYKYQSGHHYFAYRGQGTLVTVSS
notes: Recombinant nanobody of about 17 kDa; also called F8 sdAb; not shown: C-terminal Myc/6xHis-tag and an additional cysteine

Target: T1, Recombinant FGFR1 (G&P Biosciences)
Assay: SPR, FGFR1 immobilised, nanobody as analyte at five concentrations
Method: (§1) Single cycle kinetics analysis was performed with the BIAcore® T200 instrument (GE Healthcare) on CMD200M sensor chips (XanTec bioanalytics GmbH) activated with a mixture of 300 mM NHS (N-hydroxysuccinimide) and 50 mM EDC (N-ethyl-N′-(dimethylaminopropyl) carbodiimide). Recombinant FGFR1, FGFR2, FGFR3 and FGFR4 (G&P Biosciences) were immobilized on the activated biosensors (800 to 12′000 RU; 1 RU=1 pg/mm²) followed by a blocking step with 1M ethanolamine. One flow channel per chip was used as a reference to provide background corrections. The nanobodies were injected at 5 different concentrations followed by a dissociation phase. Koff-rates were determined from a final dissociation step after the last injection. The measurements with FGFR4 were performed for each nanobody on freshly immobilized protein due to strong binding and incomplete dissociation from the surface. Immobilization flow rate was 5 μl/min and binding studies were performed at 30 μl/min. Binding parameters were determined with the heterogeneous ligand model fit of the BIAevaluation software. The black curves represent the measured data and red curves show the performed fit analysis.
To determine the binding affinity of the nanobodies to FGFR4, we performed surface plasmon resonance (SPR) spectroscopy with recombinant FGFR4. As already mentioned above, FGFR1 and FGFR2 are expressed on Rh4-FR4ko cells and flow cytometry analysis indicated no binding of the nanobodies to the cells. To further confirm FGFR4-specificity, we included also affinity measurements with recombinant FGFR1, FGFR2 and FGFR3. Nanobodies A8, B1, B5, F8, and mCh were injected in five different concentrations on a FGFR coated chip. Except for the negative control mCh, calculated KD values for FGFR4 binding were in the nano- and picomolar range (FIG. 3; Table 2). Affinity parameters could not be fitted with a 1:1 binding model and best fits were obtained with the heterogeneous ligand model of the BIAevaluation software resulting in two KD values for each candidate.

binding result | Binder
no binding | B1
no binding | B2
no binding | B3
no binding | B4

Target: T2, Recombinant FGFR4 (G&P Biosciences)
Assay: SPR (BIAcore T200), single cycle kinetics, FGFR4 amine-immobilised, nanobody as analyte, heterogeneous ligand model, component 2 (KD2)
Method: (§2) FIG. 3: Affinity determination of nanobodies to recombinant protein via surface plasmon resonance spectroscopy. Single cycle kinetics analysis was performed on immobilized FGFR4 through covalent amine binding on the dextran based sensor chip. The analytes A8, B1, B5, F8 and mCh were injected in 5 different concentrations followed by a dissociation phase. A final dissociation step was added after the last injection step to determine Koff rates for the KD calculations. The black curves represent the measured data and red curves show the fit analysis (heterogeneous ligand model) performed with the BIAevaluation software.
as §1
(§3) To determine the binding affinity of the nanobodies to FGFR4, we performed surface plasmon resonance (SPR) spectroscopy with recombinant FGFR4. As already mentioned above, FGFR1 and FGFR2 are expressed on Rh4-FR4ko cells and flow cytometry analysis indicated no binding of the nanobodies to the cells. To further confirm FGFR4-specificity, we included also affinity measurements with recombinant FGFR1, FGFR2 and FGFR3. Nanobodies A8, B1, B5, F8, and mCh were injected in five different concentrations on a FGFR coated chip.

Kd [pM] | Binder
0.216 | B1
36800 | B2
4600 | B3
4140 | B4

Target: T2, Recombinant FGFR4 (G&P Biosciences)
Assay: SPR (BIAcore T200), single cycle kinetics, FGFR4 amine-immobilised, nanobody as analyte, heterogeneous ligand model, component 1 (koff1)
Method: as §2, §1
To determine the binding affinity of the nanobodies to FGFR4, we performed surface plasmon resonance (SPR) spectroscopy with recombinant FGFR4. As already mentioned above, FGFR1 and FGFR2 are expressed on Rh4-FR4ko cells and flow cytometry analysis indicated no binding of the nanobodies to the cells. […]

koff [s⁻¹] | Binder
0.000566 | B1
1.18e-06 | B3
1.04e-06 | B4

Target: T2, Recombinant FGFR4 (G&P Biosciences)
Assay: SPR (BIAcore T200), single cycle kinetics, FGFR4 amine-immobilised, nanobody as analyte, heterogeneous ligand model, component 1 (KD1)
Method: as §2, §1, §3

Kd [pM] | Binder
308 | B1
0.00422 | B2
1.06 | B3
19.1 | B4
